From PMC12464775 (2025)
Ends that are not written are not given here. * marks the point of attachment. Biotin = O=C1N[C@H]2[C@H](CS[C@H]2CCCCC(=O)*)N1; azide = [N-]=[N+]=N*

B1: extracellular domain (ECD) of the human RNF43 protein, biotinylated (domain or fragment)
chain: GFGRTGLVLAAAVESERSAEQKAIIRVIPLKMDPTGKLNLTLEGVFAGVAEITPAEGKLMQSHPLYLCNASDDDNLEPGFISIVKLESPRRAPRPCLSLASKARMAGERGASAVLFDITEDRAAAEQLQQPLGLTWPVVLIWGNDAEKLMEFVYKNQKAHVRIELKEPPAWPDY
modifications: biotin (EZ-link-NHS-PEG4-biotin), 1–2 biotin molecules per protein
B3: mouse RNF43 (domain or fragment)
chain: GFGHTGRVLAAAVESERSAEQKAVIRVIPLKMDPTGKLNLTLEGVFAGVAEVTPAEGKLMQSHPLYLCNASDDDNLEPGFISIVKLESPRRAPRPCLSLASKARMAGERGANAVLFDITEDRSAAEQLQQPLGLTKPVVLIWGSDAAKLMEFVYKNRKAYVWIELKEPPAGANY

How the values were obtained:
NAz-GUR-1.6.12.2 = assay: SPR
GUR-1 = assay: SPR
GUR-1.6.12.16 = assay: SPR
GUR-1.6.12.4 = assay: SPR
GUR-1.6.12.12 = assay: SPR
[1] = target: B1; assay: SPR
deglycosylated RNF43 = target: T1, deglycosylated RNF43 (human, UniProt Q68DV7 24-197, biotin; deglycosylated with Deglycosylation Mix II (glycosylation sites N62 and N92)); assay: SPR; deglycosylated RNF43
T1 chain: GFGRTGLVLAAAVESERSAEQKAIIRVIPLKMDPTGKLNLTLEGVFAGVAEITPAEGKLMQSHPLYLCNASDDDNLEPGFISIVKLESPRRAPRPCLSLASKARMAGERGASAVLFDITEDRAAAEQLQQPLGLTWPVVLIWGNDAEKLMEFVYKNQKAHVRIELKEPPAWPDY

mouse RNF43 = target: B3; assay: SPR
[2] = target: B1; assay: SPR
[3] = target: T2, human RNF43 (in solution) (human); assay: SPR; bio-GUR-1.6.12.2 immobilized
T2 chain: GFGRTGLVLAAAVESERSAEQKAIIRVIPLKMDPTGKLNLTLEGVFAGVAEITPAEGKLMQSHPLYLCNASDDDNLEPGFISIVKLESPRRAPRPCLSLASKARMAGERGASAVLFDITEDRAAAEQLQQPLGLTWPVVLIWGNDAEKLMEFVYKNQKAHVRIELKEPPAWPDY

[4] = target: B1; assay: SPR; RNF43 immobilized

B1
Kd (NAz-GUR-1.6.12.2): 2.9 nM | Kd (GUR-1): 1220 nM | Kd (GUR-1.6.12.16): 4 nM | Kd (GUR-1.6.12.4): 3.9 nM | Kd (GUR-1.6.12.12): 7.9 nM

B2: GUR-1.6.12 (designed binder)
chain: QCVKKDELCIPYYLDCCWPLDCRWAVKYQWFWDCIG
Kd [1]: 56 nM

B3
Kd (GUR-1.6.12.16): 1.6 nM | Kd (GUR-1.6.12.4): 4.5 nM | Kd (GUR-1.6.12.12): 5.1 nM

B4: GUR-1.6 (designed binder)
chain: QCVKKDELCIPYYLDCCEPLECRWAVKYQWFWDCIG
Kd [1]: 92 nM

B5: GUR-1.6.12.2 (designed binder)
chain: EQCTSTQDLCHDYSHVCCWPLDCRWAVKYQWFWDCIG
Kd (deglycosylated RNF43): 2.8 nM | Kd [1]: 1.1 nM | Kd (mouse RNF43): 2.1 nM

B6: truncated peptide GUR-1.6.12.2 H11-G37 (peptide)
chain: HDYSHVCCWPLDCRWAVKYQWFWDCIG
Kd [2]: 4.6 nM

B7: di-GUR-1.6.12.2 (designed binder)
chain: azide-EQCTSTQDLCHDYSHVCCWPLDCRWAVKYQWFWDCIG
modifications: also: dimer via bivalent PEG5 linker (azide–alkyne cycloaddition)
Kd [2]: 0.06 nM

B8: N-terminal biotinylated GUR-1.6.12.2 (designed binder)
chain: Biotin-EQCTSTQDLCHDYSHVCCWPLDCRWAVKYQWFWDCIG
modifications: cysteine pairing not given here
Kd [3]: 46.9 nM | Kd [4]: 0.5 nM

B9: hex-GUR-1.6.12.2 (designed binder)
chain: azide-EQCTSTQDLCHDYSHVCCWPLDCRWAVKYQWFWDCIG
modifications: also: hexamer via six-armed PEG linker (azide–alkyne cycloaddition)
Kd [2]: 0.0002 nM
